Measured values: PMC11180011

Test system: T1, DasR (Streptomyces lincolnensis NBRC_13054), ORF:7245352e
T1 sequence: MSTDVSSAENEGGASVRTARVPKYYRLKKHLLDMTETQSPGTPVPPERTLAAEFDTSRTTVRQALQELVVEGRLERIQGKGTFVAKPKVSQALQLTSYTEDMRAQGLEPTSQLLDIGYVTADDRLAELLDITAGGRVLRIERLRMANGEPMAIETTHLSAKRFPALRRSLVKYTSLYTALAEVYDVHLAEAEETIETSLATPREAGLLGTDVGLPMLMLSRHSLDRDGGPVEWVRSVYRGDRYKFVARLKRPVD
Assay: EMSA
Conditions: EMSA kit, 20 uL, 50 ng/uL Cy5 probe, 6% non-denaturing PAGE; fifth lane with 10 mg/mL salmon sperm DNA; buffer, pH, salt and temperature not given

Sequence	binding
AGCCAGTGGCGATAAGACGCACGTACGCAACTCCTTTCGGTTTCCCAGGAGTCACTCCCCGGTCCGGACGGGACATGAACTAATTCAGCTACTTATCGGTCAATCTTGAGCGCGTAGTGCCTTCATGTGGTCGGCAATGCCAGGTTCATGACATTCTCGAATGCTCGGCAATCACAGGCCCTACCGGCGGGGAGGACGCTGGTGGAGTTCGAGATCTTATCGCCACTGGCT (double strand) [SLINC_4481 promoter]	no binding
AGCCAGTGGCGATAAGAGGGCCTGGATGAGCTGCCTGTCCACCGCGTCCATGCGATCGAAGCCTTCCGATGAAGAGATCCCGAAGTGATGAGAGGTACTGCCCTGTGCCCTGCTGCTCTGTGCCGTGCTGCCCTGTGCCCTACTGCCCTGTGTCCTCTTATCGCCACTGGCT (double strand) [SLINC_4906 promoter]	no binding
AGCCAGTGGCGATAAGATATCCTCTTTCCCCGGGAGAGCCGGTCCCCGTGGTTGTCGCGACGGATGCTGTGGGTCTTCGGCGGGGTGTTCGCCCTCGGTACGGCACTCTTCGCGCTGATTTCCCTCCTGCGGTCGGATTTCCGCCTCTCCGTGGTCGAGATCGGTGCGGTGCTCGCGATCGTGGGACTGCTGACCTGGGCCGCTTCACGCTGCCAGGCCCGAGACACACCGTGTGTACCGAAGCGACTGCCTGGGACGCTACGGGCCGGATGGACTTATCGCCACTGGCT (double strand) [lmrA promoter]	no binding
AGCCAGTGGCGATAAGATGACATGTCTCACGGGGGACAGTGTGACCCCAGGACCCGCAAGAGGTCTAGTCCACTCACGTGGTGTAGACCTTAGGGCGGCAATATGTATGACCTTTCGAGAGTTTTTCGATCAGTGATCTTGAGGCGGTTGGCAGTGCGGCGGCGTAGGACTTATCGCCACTGGCT (double strand) [nagK promoter]	binds
AGCCAGTGGCGATAAGATGACTCAAAAGACTCTCCTCACCACACGCGCCACGTAACGGTGGGCACGTGGCGCGCATGACGTTCGTGCAGAAGCAGTTGTCGTTGTGGACGCAGGCACCGGTGGCCCGCTTATTCAGTTGTGAAGTCTGGTTGCGCGACGCGGCGCGCGAAGTCTGTTGCTAGAGCTCTTATCGCCACTGGCT (double strand) [SLINC_6156 promoter]	no binding
AGCCAGTGGCGATAAGGCTGGGCCTGCCGTTCTCAAGGGGCTGCACGGGGTGTGTGGTTTAGACCAATCCAGCCTCCAATCTAACAGAACCTCGCCCGGCCTCCCAGGTCTGCCGGGTGTCCCGGAGATGACCGGAAACCCTCGGCGAGGGCACCCCTCGCCCCGCGGTCCCTACGTCAGCGAACTTATCGCCACTGGCT (double strand) [nagB promoter]	binds
AGCCAGTGGCGATAAGGGTTCCTGCATATGTAGCTCGTATAACGGCTGGTCAGAGCCGTTCCAGCACTCTTGACAGGTGTATTGGCCTGGTCCAAGCTCCGGGTACTGGTCTACACCATTGGTCCAGGTCCCGGCTCCATGGGCGGGGGGTGTGGGCATCCCTGAGGAGGCTTATCGCCACTGGCT (double strand) [dasA promoter]	binds
AGCCAGTGGCGATAAGTCACTCGGTCTTCCCGTCCGCCGGACCGCCAACCCCTACCTCGCCAGGGCCCTGGGATAGGCCGGCGGGCGGCGCCGCCCGTGACGCGTAGCTGCCCTGGACGAAGGAGGCCACGCGTCGGCCGCGCCACTCCTGCGGGGCGCCCGGGCCGAGCGCGGTGACCGTGCCGGGCTGCGTAGGCTCACAGACATGGCTGAGATCGGGCTGCGTGCTTATCGCCACTGGCT (double strand) [SLINC_3938 promoter]	no binding
